In patent publication US20240279318A1:
Where a chain is given by its changes, count along the chain named.

B1: AS170036 VL1VH1-VLH98Q (scFv)
scFv: QSALTQPRSVSGSPGQSVTISCAGTSSDVGSENYVSWYQQHPGKAPKLMIYQVNKRASGVPDRFSGSKSGNTASLTISGLQAEDEADYYCASYRSSDQNIVFGGGTKLTVLGGGGSGGGGSGGGGSEVQLVESGGGLVQPGGSLRLSCAASGFTFSSYAMSWVRQAPGKGLEWVSTINSGTGSPYYADSVKGRFTISRDNSKNTLYLQMNSLRAEDTAVYYCAKNFFDGSWFLGPPAMDYWGQGTLVTVSSHHHHHH
B2: AS170036 VL1VH1-VLH98I (scFv)
scFv: B1 scFv with Q98I
B3: AS170036 VL1VH1-VLH98F (scFv)
scFv: B1 scFv with Q98F
B4: AS170036 VL1VH1-VHG56Y (scFv)
scFv: B1 scFv with Q98H, G182Y
B5: AS170036 VL1VH1-VHG56N (scFv)
scFv: B1 scFv with Q98H, G182N
B6: AS170036 VL1VH1-VHS57M (scFv)
scFv: B1 scFv with Q98H, S183M
B7: AS170036 VL1VH1-VHS57K (scFv)
scFv: B1 scFv with Q98H, S183K
B8: AS170036 VL1VH1-VHS57H (scFv)
scFv: B1 scFv with Q98H, S183H
B9: AS170036 VL1VH1-VHG108S (scFv)
scFv: B1 scFv with Q98H, G234S
B10: AS170036 VL1VH1-VHG108D (scFv)
scFv: B1 scFv with Q98H, G234D
B11: AS170036 VL1VH1-VHG108A (scFv)
scFv: B1 scFv with Q98H, G234A
B12: AS170036 VL1VH1 (scFv)
scFv: B1 scFv with Q98H
B13: 03-AS170036 VL1VH1-56Y98Q (scFv)
scFv: B1 scFv with G182Y
B14: 05-AS170036 VL1VH1-56N98I (scFv)
scFv: B1 scFv with Q98I, G182N
B15: 10-AS170036 VL1VH1-57K98F (scFv)
scFv: B1 scFv with Q98F, S183K
B16: 15-AS170036 VL1VH1-57M98Q (scFv)
scFv: B1 scFv with S183M
B17: 16-AS170036 VL1VH1-56Y108A (scFv)
scFv: B1 scFv with Q98H, G182Y, G234A
B18: 19-AS170036 VL1VH1-56N108A (scFv)
scFv: B1 scFv with Q98H, G182N, G234A
B19: 22-AS170036 VL1VH1-57H108A (scFv)
scFv: B1 scFv with Q98H, S183H, G234A
B20: 25-AS170036 VL1VH1-57K108A (scFv)
scFv: B1 scFv with Q98H, S183K, G234A
B21: 27-AS170036 VL1VH1-57K108S (scFv)
scFv: B1 scFv with Q98H, S183K, G234S
B22: 34-AS170036 VL1VH1-98I108A (scFv)
scFv: B1 scFv with Q98I, G234A
B23: 40-AS170036 VL1VH1-56Y98F108A (scFv)
scFv: B1 scFv with Q98F, G182Y, G234A
B24: 42-AS170036 VL1VH1-56Y98F108S (scFv)
scFv: B1 scFv with Q98F, G182Y, G234S
B25: 43-AS170036 VL1VH1-56Y98I108A (scFv)
scFv: B1 scFv with Q98I, G182Y, G234A
B26: 45-AS170036 VL1VH1-56Y98I108S (scFv)
scFv: B1 scFv with Q98I, G182Y, G234S
B27: 48-AS170036 VL1VH1-56Y98Q108S (scFv)
scFv: B1 scFv with G182Y, G234S
B28: 49-AS170036 VL1VH1-56N98F108A (scFv)
scFv: B1 scFv with Q98F, G182N, G234A
B29: 67-AS170036 VL1VH1-57K98F108A (scFv)
scFv: B1 scFv with Q98F, S183K, G234A
B30: 70-AS170036 VL1VH1-57K98I108A (scFv)
scFv: B1 scFv with Q98I, S183K, G234A
B31: 75-AS170036 VL1VH1-57K98Q108S (scFv)
scFv: B1 scFv with S183K, G234S
B32: 82-AS170036 VL1VH1-57M98Q108A (scFv)
scFv: B1 scFv with S183M, G234A
B33: AS167821A-AS167821A-TCE-KIH (bispecific antibody, human IgG1, kappa, L234A L235A)
heavy: EVQLVESGGGLVQPGRSLRLSCAASGFTFDDYAMHWVRQAPGKGLEWVSGISWNSGSIGYADSVKGRFTISRDNAKNSLYLQMNSLRAEDTALYYCAKDSRGYGDYRLGGAYWGQGTLVTVSSASTKGPSVFPLAPSSKSTSGGTAALGCLVKDYFPEPVTVSWNSGALTSGVHTFPAVLQSSGLYSLSSVVTVPSSSLGTQTYICNVNHKPSDTKVDKKVEPKSCDKTHTCPPCPAPEAAGGPSVFLFPPKPKDTLMISRTPEVTCVVVDVSHEDPEVKFNWYVDGVEVHNAKTKPREEQYNSTYRVVSVLTVLHQDWLNGKEYKCKVSNKALPAPIEKTISKAKGQPREPQVYTLPPSREEMTKNQVSLWCLVKGFYPSDIAVEWESNGQPENNYKTTPPVLDSDGSFFLYSKLTVDKSRWQQGNVFSCSVMHEALHNHYTQKSLSLSPGK
light: not shown
chain: QVRLVESGGGSVQAGGSLRLSCAASGRTYSTYAMGWFRQAPGKEREGVATIYIGSGRTYYVDSVKGRFTISQDNAKNTLYLQMNNLKPEDTAMYYCTADVDPYESSWSRGLGYWGQGTQVTVSSGGGGSGGGGSGGGGSGGGGSGGGGSQVRLVESGGGSVQAGGSLRLSCAASGRTYSTYAMGWFRQAPGKEREGVATIYIGSGRTYYVDSVKGRFTISQDNAKNTLYLQMNNLKPEDTAMYYCTADVDPYESSWSRGLGYWGQGTQVTVSSEPKSSDKTHTCPPCPAPEAAGGPSVFLFPPKPKDTLMISRTPEVTCVVVDVSHEDPEVKFNWYVDGVEVHNAKTKPREEQYNSTYRVVSVLTVLHQDWLNGKEYKCKVSNKALPAPIEKTISKAKGQPREPQVYTLPPSREEMTKNQVSLSCAVKGFYPSDIAVEWESNGQPENNYKTTPPVLDSDGSFFLVSKLTVDKSRWQQGNVFSCSVMHEALHNRYTQKSLSLSPGK

biological target: AFP158 homologous peptides/HLA-A*02:01 complexes; assay: SPR, crude scFv captured, complexes as analyte

B1 and B2 cannot be ordered by SPR response: under 3.5 RU for the first, under 3.5 RU for the second.

B3 and B4 cannot be ordered by SPR response: under 3.5 RU for the first, under 3.5 RU for the second.

B5 and B6 cannot be ordered by SPR response: under 3.5 RU for the first, under 3.5 RU for the second.

B7 and B8 cannot be ordered by SPR response: under 3.5 RU for the first, under 3.5 RU for the second.

B9 and B10 cannot be ordered by SPR response: under 3.5 RU for the first, under 3.5 RU for the second.

Binder B11 has an SPR response of under 3.5 RU.

biological target: group 1: ZNF566 and ARNTL homologous peptide/HLA-A*02:01 complexes (mixed); assay: SPR (BIAcore T200), crude scFv captured, mixed complexes flowed over

Compared with B12, B13 is higher in SPR binding level: 0.8 RU for the first, 4 RU for the second.

Going from B14 to B15, the SPR binding level rises from 4.4 RU to 6.8 RU.

First: B16
Second: B17
The SPR binding level of the first is higher: 5.1 RU for the first, 4.5 RU for the second.

Going from B18 to B19, the SPR binding level rises from 5 RU to 26.6 RU.

Compared with B20, B21 is lower in SPR binding level: 10.9 RU for the first, 6.1 RU for the second.

Compared with B22, B23 is higher in SPR binding level: 10.2 RU for the first, 13.8 RU for the second.

Going from B24 to B25, the SPR binding level rises from 6.3 RU to 25.7 RU.

Compared with B26, B27 is higher in SPR binding level: 9 RU for the first, 9.3 RU for the second.

First: B28
Second: B29
The SPR binding level of the first is lower: 15.3 RU for the first, 35.8 RU for the second.

Going from B30 to B31, the SPR binding level falls from 33.7 RU to 22.6 RU.

Binder B32 has an SPR binding level of 28.2 RU.

biological target: group 2: CDC14A, PTP4A1, BRCA2 and RCL1 homologous peptide/HLA-A*02:01 complexes (mixed); assay: as above

Compared with B12, B13 is higher in SPR binding level: 0.4 RU for the first, 27.2 RU for the second.

First: B14
Second: B15
The SPR binding level of the first is higher: 7 RU for the first, 4 RU for the second.

Compared with B16, B17 is higher in SPR binding level: 2.8 RU for the first, 32.6 RU for the second.

Compared with B18, B19 is higher in SPR binding level: 7.5 RU for the first, 10 RU for the second.

Compared with B20, B21 is lower in SPR binding level: 6.3 RU for the first, 3.3 RU for the second.

Going from B22 to B23, the SPR binding level rises from 11.2 RU to 79.2 RU.

First: B24
Second: B25
The SPR binding level of the first is lower: 39.3 RU for the first, 148 RU for the second.

First: B26
Second: B27
The SPR binding level of the first is higher: 64.7 RU for the first, 56.6 RU for the second.

Compared with B28, B29 is higher in SPR binding level: 21.1 RU for the first, 22.3 RU for the second.

First: B30
Second: B31
The SPR binding level of the first is higher: 21.9 RU for the first, 14.3 RU for the second.

Work on B32 yielded an SPR binding level of 16.6 RU.

biological target: group 3: OR1I1, OR51B6, OR6C1, ATG9A, RP1 and NR2E1 homologous peptide/HLA-A*02:01 complexes (mixed); assay: as above

Compared with B12, B13 is higher in SPR binding level: 0.2 RU for the first, 2.4 RU for the second.

First: B14
Second: B15
The SPR binding level of the first is higher: 2 RU for the first, 1 RU for the second.

Compared with B16, B17 is higher in SPR binding level: 1.2 RU for the first, 3.2 RU for the second.

Going from B18 to B19, the SPR binding level rises from 2.6 RU to 5.7 RU.

First: B20
Second: B21
The SPR binding level of the first is higher: 2 RU for the first, 1.3 RU for the second.

First: B22
Second: B23
The SPR binding level of the first is lower: 3.6 RU for the first, 9.5 RU for the second.

Going from B24 to B25, the SPR binding level rises from 4.4 RU to 17.3 RU.

First: B26
Second: B27
The SPR binding level of the first is lower: 6 RU for the first, 6.1 RU for the second.

Compared with B28, B29 is lower in SPR binding level: 6.5 RU for the first, 6.3 RU for the second.

Compared with B30, B31 is lower in SPR binding level: 5.8 RU for the first, 3.9 RU for the second.

Binder B32 has an SPR binding level of 4.7 RU.

biological target: other peptide-loaded T2 cells; assay: cell-based or functional assay

With B33 the T cell redirected cell killing (LDH), 1 nM BsAb was under 20%.
